Results as given in article PMC4815241 (Protein Science : A Publication of the Protein Society, 2015).

How the values were obtained:
[1] = target: eIF4GII_(551–745)/eIF4E complex (human | murine) (UniProt O43432); experiment: ITC
[2] = target: eIF4GII_(551–745)/eIF4E complex (human | murine) (UniProt O43432); experiment: SEC-MALS

Chain of eIF4GII_(551–745)/eIF4E complex (human | murine) (O43432 551-745, chain 1 of 2): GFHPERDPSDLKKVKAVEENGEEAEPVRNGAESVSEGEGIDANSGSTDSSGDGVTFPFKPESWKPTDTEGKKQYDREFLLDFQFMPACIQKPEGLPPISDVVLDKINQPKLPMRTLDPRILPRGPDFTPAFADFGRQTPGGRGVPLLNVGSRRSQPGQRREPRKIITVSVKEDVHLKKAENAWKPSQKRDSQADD
Chain of eIF4GII_(551–745)/eIF4E complex (human | murine) (P63073 whole entry, chain 2 of 2, further chain): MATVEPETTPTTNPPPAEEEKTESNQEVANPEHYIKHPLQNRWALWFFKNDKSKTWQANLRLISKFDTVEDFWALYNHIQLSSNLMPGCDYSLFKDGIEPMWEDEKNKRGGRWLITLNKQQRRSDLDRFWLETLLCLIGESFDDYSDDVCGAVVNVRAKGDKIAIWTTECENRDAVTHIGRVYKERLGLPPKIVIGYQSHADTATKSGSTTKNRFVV

Substance: FMDV leader proteinase, shortened form, sLb^proC51A (FMDV residues 29–195) (enzyme)
- Kd [1]: 33 nM
- stoichiometry N [2]: 1
